The text below walks through data of patent publication EP2168984B1 (Abbott GmbH & Co. KG, dated 2012).

Residue numbers refer to the chain shown, from its start. Numbers in names are those of the source.

The target of one test is T1, Cyno IL-12 (cynomolgus monkey).
T1 chain 1: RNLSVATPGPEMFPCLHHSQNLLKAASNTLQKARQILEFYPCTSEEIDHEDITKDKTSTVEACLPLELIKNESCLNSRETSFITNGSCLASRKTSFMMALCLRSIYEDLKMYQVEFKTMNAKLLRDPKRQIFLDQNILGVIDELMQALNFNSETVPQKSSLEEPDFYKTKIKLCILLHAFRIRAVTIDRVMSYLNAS
T1 chain 2: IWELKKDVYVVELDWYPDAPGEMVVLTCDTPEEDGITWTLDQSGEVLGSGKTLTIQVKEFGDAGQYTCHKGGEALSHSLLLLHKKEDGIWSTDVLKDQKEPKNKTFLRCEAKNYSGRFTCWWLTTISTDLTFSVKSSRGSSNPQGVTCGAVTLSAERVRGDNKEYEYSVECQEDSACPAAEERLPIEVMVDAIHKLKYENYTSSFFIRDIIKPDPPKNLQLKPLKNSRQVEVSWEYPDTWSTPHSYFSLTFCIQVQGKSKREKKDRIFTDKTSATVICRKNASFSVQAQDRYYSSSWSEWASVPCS
The test can be described thus: cell-based or functional assay.

In test [1] the target is T2, recombinant human IL-12 (human, UniProt P29459 23-219; P29460 23-328).
T2 sequence (looked up) 1: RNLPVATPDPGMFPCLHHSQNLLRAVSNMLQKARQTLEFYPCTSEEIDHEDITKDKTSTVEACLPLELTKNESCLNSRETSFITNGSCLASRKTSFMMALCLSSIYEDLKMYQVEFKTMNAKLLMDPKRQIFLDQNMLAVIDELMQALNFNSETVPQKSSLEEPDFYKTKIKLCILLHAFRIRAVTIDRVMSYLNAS
T2 sequence (looked up) 2: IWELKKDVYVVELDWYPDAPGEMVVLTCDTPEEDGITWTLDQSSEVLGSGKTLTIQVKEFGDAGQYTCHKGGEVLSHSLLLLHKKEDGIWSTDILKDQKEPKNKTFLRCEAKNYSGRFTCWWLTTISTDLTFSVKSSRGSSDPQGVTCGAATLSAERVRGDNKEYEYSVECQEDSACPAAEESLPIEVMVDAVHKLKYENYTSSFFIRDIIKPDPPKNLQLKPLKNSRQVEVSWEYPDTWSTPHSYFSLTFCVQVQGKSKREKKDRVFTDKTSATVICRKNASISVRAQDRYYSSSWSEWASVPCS
The test can be described thus: cell-based or functional assay.

In test [2] the target is T2, recombinant human IL-12. Briefly: cell-based or functional assay. The source holds these as a separate data set.
Test [3] concerns the target T3, recombinant human IL-12 (human, UniProt P29459 23-219; P29460 23-328).
T3 construct: disulfide-linked p35/p40 heterodimer; also called hIL-12; rhIL-12
T3 sequence (looked up) 1: T2 sequence (looked up) 1
T3 sequence (looked up) 2: T2 sequence (looked up) 2
The test can be described thus: BIAcore SPR, immobilised IL-12.

Another test addresses T4, Dog IL-12 (dog, UniProt Q28267 26-222; Q28268 23-329).
T4 sequence (looked up) 1: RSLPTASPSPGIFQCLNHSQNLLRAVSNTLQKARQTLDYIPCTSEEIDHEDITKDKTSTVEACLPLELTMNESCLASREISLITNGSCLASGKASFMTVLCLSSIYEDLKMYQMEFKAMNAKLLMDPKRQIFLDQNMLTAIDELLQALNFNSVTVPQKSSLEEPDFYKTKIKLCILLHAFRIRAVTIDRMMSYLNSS
T4 sequence (looked up) 2: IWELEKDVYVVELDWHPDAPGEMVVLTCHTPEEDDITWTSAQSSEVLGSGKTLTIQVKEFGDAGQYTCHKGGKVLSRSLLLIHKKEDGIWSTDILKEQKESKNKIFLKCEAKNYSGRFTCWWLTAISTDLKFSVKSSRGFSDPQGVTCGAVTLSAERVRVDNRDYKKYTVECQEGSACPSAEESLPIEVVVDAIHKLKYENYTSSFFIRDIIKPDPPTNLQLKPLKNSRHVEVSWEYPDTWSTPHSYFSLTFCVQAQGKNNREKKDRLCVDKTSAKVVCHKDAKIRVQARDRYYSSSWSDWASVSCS
The test can be described thus: cell-based or functional assay.

The target in another test is T5, Baboon IL-12 (baboon).
T5 chain 1: T1 chain 1 with F82V, N85K, K110Q, M111I, R125M, K172R
T5 chain 2: T1 chain 2 with V230A
Briefly: cell-based or functional assay.

Another test deals with T6, Rhesus IL-12 (rhesus monkey, UniProt P48091 23-219; P48095 23-328).
T6 sequence (looked up) 1: T1 chain 1
T6 sequence (looked up) 2: T1 chain 2
Briefly: cell-based or functional assay.

The target in test [4] is T2, recombinant human IL-12. The test can be described thus: cell-based or functional assay. This is another data set of the same source.

B1: Y61 IgG (antibody, V domains shown)
VH: QVQLVQSGGGVVQPGRSLRLSCAASGFTFSSYGMHWVRQAPGKGLEWVAFIRYDGSNKYYADSVKGRFTISRDNSKNTLYLQMKSLRAEDTAVYYCKTHGSHDNWGQGTMVTVSS
VL: SYVLTQPPSVSGTPGQRVTISCSGGRSWIGSNTVKWYQQLPGTAPKLLIYGNDQRPSGVPDRFSGSKSGTSASLAITGVQAEDEADYYCQSYDRGTHPALLFGTGTKVTVLG
As for B1, the “IC50 (M), species cross reactivity bioassay” value came out at 2.2e-10 M with Cyno IL-12 and 1.7e-10 M with recombinant human IL-12 [1].

B2: Y139 (scFv, V domains shown)
VH: B1 VH
VL: SYVLTQPPSVSGTPGQRVTISCSGGRSNIGSNTVKWYQQLPGTAPKLLIYGNDQRPSGVPDRFSGSKSGTSASLAITGVQAEDEADYYCQSYDRGSHPALTFGTGTKVTVL
B2: in the test with recombinant human IL-12 [2], the “IFN gamma IC50” value came out at 0.16 nM.

B3: 177-H10 (scFv, V domains shown)
VH: B1 VH
VL: B2 VL with S96T, A99T, L100M, T101Y
The term koff denotes a measure of how fast the partners let go of each other. For the molecule B3, the koff with recombinant human IL-12 [3] worked out at 0.344 s⁻¹.

B4: J695 (Y61-L94Y- L50Y IgG*) (antibody, V domains shown)
VH: B1 VH with Q6E, K84N
VL: B1 VL with S1Q, Y2S, T13A, G25S, W28N, G51Y, V79L, G95Y
On to B4, for which the “IC50 (M), species cross reactivity bioassay” value was 1e-11 M with Cyno IL-12; 3.5e-10 M in the test with Dog IL-12; 5e-12 M in the test with recombinant human IL-12 [1]; 1.5e-11 M with Baboon IL-12; 1e-11 M with Rhesus IL-12. Moreover, the “PHA blast Assay IC50” value with recombinant human IL-12 [4] stood at 0.0058 nM.
